For assay [1], the target named is T1, 009-mut5 (…) / HLA-A*0201 complex on T2 cells (human).
T1 construct: also called EXT009-mut5
Kind of assay: phage FACS on peptide-loaded T2 cells.

Assay [2] concerns the target T2, 009-mut6 (…) / HLA-A*0201 complex on T2 cells (human).
T2 construct: also called EXT009-mut6
Kind of assay: phage FACS on peptide-loaded T2 cells.

Assay [3] deals with T3, PRA300-309 (…) / HLA-A*0201 complex (human).
T3 construct: also called PRAME300; PRAME P300
Kind of assay: phage FACS on peptide-loaded T2 cells.

The target in assay [4] is T4, 009-mut2 (…) / HLA-A*0201 complex on T2 cells (human).
T4 construct: also called EXT009-mut2
Kind of assay: phage FACS on peptide-loaded T2 cells.

The target in assay [5] is T5, 009-mut8 (…) / HLA-A*0201 complex on T2 cells (human).
T5 construct: also called EXT009-mut8
Briefly: phage FACS on peptide-loaded T2 cells.

For assay [6], the target named is T6, 009-mut3 (…) / HLA-A*0201 complex on T2 cells (human).
T6 construct: also called EXT009-mut3; Pr302A
Kind of assay: phage FACS on peptide-loaded T2 cells.

Assay [7] deals with T7, 009-mut10 (…) / HLA-A*0201 complex on T2 cells (human).
T7 construct: Alanine variant at peptide position 10
Briefly: phage FACS on peptide-loaded T2 cells.

Assay [8] addresses T8, 009-mut7 (…) / HLA-A*0201 complex on T2 cells (human).
T8 construct: also called EXT009-mut7; Pr306A
Kind of assay: phage FACS on peptide-loaded T2 cells.

The target of assay [9] is T9, 009-mut9 (…) / HLA-A*0201 complex on T2 cells (human).
T9 construct: also called EXT009-mut9
Briefly: phage FACS on peptide-loaded T2 cells.

For assay [10], the target named is T10, 009-AAAA (…) / HLA-A*0201 complex on T2 cells (human).
T10 construct: Control peptide with alanines at positions 4-7; also called EXT009-AAAA; 009-AAAA (position 4-7)
Kind of assay: phage FACS on peptide-loaded T2 cells.

Assay [11] deals with T11, 009-mut4 (…) / HLA-A*0201 complex on T2 cells (human).
T11 construct: also called EXT009-mut4
Briefly: phage FACS on peptide-loaded T2 cells.

The target of assay [12] is T12, HLA-A*0201 on T2 cells without added peptide (human).
T12 construct: Background target (T2 cells with no peptide pulsed); also used as the HLA-A*02 partner of the peptide in the stabilisation read-out; also called T2 cells alone; unpulsed T2 cells
Kind of assay: phage FACS on T2 cells without peptide.

Assay [13] deals with T10, 009-AAAA (…) / HLA-A*0201 complex on T2 …. Kind of assay: phage FACS on peptide-loaded T2 cells. The source holds these as a separate data set.
Assay [14] has as its target T13, PRA435-443 (…) / HLA-A*0201 complex (human).
T13 construct: also called PRAME P435
Briefly: flow cytometry on tumor cell lines. A general note: Flow cytometry measures light scatter and fluorescence of single cells or particles in a stream.

For assay [15], the target named is T3, PRA300-309 (…) / HLA-A*0201 complex. Briefly: method not stated; told in the ADCC example with PRAME+/HLA-A*02:01+ leukemia cells; lower end of the printed range 3-4 nM.
For assay [16] the target is unchanged. Briefly: cell-based or functional assay.
Assay [17] shares this target. Kind of assay: method not stated; told in the ADCC example with PRAME+/HLA-A*02:01+ leukemia cells; upper end of the printed range 3-4 nM.
Assay [18] addresses T12, HLA-A*0201 on T2 cells without added …. Kind of assay: flow cytometry, Prame20 mAb on T2 cells without peptide; axis without numbers.
Assay [19] deals with T1, 009-mut5 (…) / HLA-A*0201 complex on T2 …. Kind of assay: flow cytometry, APC-Pr300#20 at 3 µg/ml on peptide-pulsed T2 cells; the sheet gives 324 for T2 alone and 68351 for Pr300.
The target in assay [20] is T2, 009-mut6 (…) / HLA-A*0201 complex on T2 …. Described as above.
Assay [21] has as its target T5, 009-mut8 (…) / HLA-A*0201 complex on T2 …. Described as above.
In assay [22] the target is T6, 009-mut3 (…) / HLA-A*0201 complex on T2 …. The assay is described as above.
Assay [23] deals with T8, 009-mut7 (…) / HLA-A*0201 complex on T2 …. Described as above.
Assay [24] addresses T9, 009-mut9 (…) / HLA-A*0201 complex on T2 …. The description is as above.
The target of assay [25] is T11, 009-mut4 (…) / HLA-A*0201 complex on T2 …. The assay is described as above.
For assay [26], the target named is T12, HLA-A*0201 on T2 cells without added …. Briefly: T2 stabilisation: surface HLA-A*02 level after pulsing with 50 µg/mL peptide, flow cytometry; the staining antibody is not named for this panel.

B1: EXT009-17 phage (scFv phage clone) (scFv)
scFv: QSVLTQPPSVSGAPGQRVTISCTGSSSNIGAGFDVHWYQQLPGTAPKLLIFGNSNRPSGVPDRFSGSKSGTSASLAITGLQAEDEADYYCQSYDSSLSGYVFGSGTKVTVLGSRGGGGSGGGGSGGGGSLEMAEVQLVESGAEVKKPGSSVKVSCKASGGTFSSYAISWVRQAPGQGLEWMGRIIPIFGIANYAQKFQGRVTITADKSTSTAYMELSSLRSEDTAVYYCARSMWYMDSWGQGTLVTVSS
In the case of B1, the MFI in assay [1] came out at 85.1; in assay [2], 23800; in [3], 19400; in assay [4] it was 82; in [5] it was 96.1; in assay [6], 95.5. In addition, the MFI in assay [7] amounted to 146; in [8], 82.1; in assay [9], 79.7; in assay [10], 85.7; in assay [11] it was 7510; in assay [12], 82.8. In addition, the binding result in [13] was “no binding”.

B2: Pr435#12 antibody (antibody, V domains shown)
VH: EVQLVESGAEVKKPGSSVKVSCKASGGTFSSYAISWVRQAPGQGLEWMGRIIPILGIANYAQKFQGRVTITADKSTSTAYMELSSLRSEDTAVYYCARQGYVWSEMDFWGQGTLVTVSS
VL: LLPVLTQPPSVSVAPGKTARITCGGNNIGSKSVHWYQQKPGQAPVLVIYYDSDRPSGIPERFSGSNSGNTATLTISRVEAGDEADYYCQVWDSITDHYVFGTGTKVTVLG
notes: also called Pr4350#12
Turning to B2, in assay [14], the binding result is recorded as “binds”.

B3: Pr300#20-MAGE (antibody, V domains shown)
VH: QVQLVQSGAEVRKPGASVKVSCKASGGTFSSYAISWVRQAPGQGLEWMGRIIPILGIANYAQKFQGRVTITADKSTSTAYMELSSLRSEDTAVYYCARHYGQWWDYWGQGTLVTVSS
VL: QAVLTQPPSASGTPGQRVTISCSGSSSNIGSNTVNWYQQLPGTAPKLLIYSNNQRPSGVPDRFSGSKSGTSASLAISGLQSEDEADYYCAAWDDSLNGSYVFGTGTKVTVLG
modifications: modified afucosylated Fc
notes: also called Pr#20-Fc enhanced; Pr20M
Turning to B3, the Kd (usually the concentration at which binding is half-saturated) in [15] is at least 3 nM; in assay [17], at most 4 nM. In assay [16], the “EC50 (ADCC, 51Cr release, human PBMC effectors, E:T 50:1)” value lay within 2 to 3 nM.

B4: Pr300#20 human IgG1 antibody (antibody, V domains shown)
VH: QVQLVQSGAEVRKPGASVKVSCKASGGTFSSYAISWVRQAPGQGLEWMGRIIPILGIANYAQKFQGRVTITADKSTSTAYMELSSLRSEDTAVYYCARHYGQWWDYWGQGTLVTVSS
VL: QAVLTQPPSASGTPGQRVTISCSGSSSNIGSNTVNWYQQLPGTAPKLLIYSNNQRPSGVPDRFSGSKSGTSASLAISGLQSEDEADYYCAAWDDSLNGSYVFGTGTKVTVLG
notes: Full-length human IgG1 with matching human lambda constant region; Used APC-conjugated in flow cytometry; also called Pr#20; PR#20
On to B4, for which the binding result in assay [18] is “no binding”. Further, the “Median: APC-A” value in assay [19] worked out at 6240; in assay [20] it was 28600; in assay [21] it was 10900; in assay [22] it was 18900; in [23] it was 41500; in [24] it was 730. In addition, in [25], the “Median: APC-A” value worked out at 72800.

B5: EXT009-8 phage (scFv phage clone) (scFv)
scFv: QSVVTQPPAVSGALGQRVTISCTGTTSNIGAGFDVHWYQQRPGAAPKLLISGNTHRPSGVPDRISGSKSGTLASLAITGLQAEDEADYYCQSYDRSLSTILFGGGTKLTVLGSRGGGGSGGGGSGGGGSLEMAQVQLVQSGAEVKKPGSSVKVSCKASGGTFSSHPISWVRQAPGQGLEWMGRIIPMLDIPNNAQKFQGRVTITADKSTDTAYLELSSLTSEDTAVYYCARGLYYYDYWGQGTLVTVSS
notes: also called EXT009-08
As to B5, the MFI in assay [1] was 138; in assay [2], 3830; in assay [3] it was 1360; in assay [4], 83.3; in [5], 82.5; in assay [6], 88.2. For the same molecule, the MFI in assay [7] turned out to be 83.2; in assay [8], 83.1; in [9], 83.2; in assay [10], 86.3; in [11] it was 87.6; in assay [12], 85.9. In addition, the binding result in assay [13] is given as “no binding”.

B6: Pr435#37 antibody (antibody, V domains shown)
VH: EVQLVESGAEVKKPGASVKVSCKASGYTFTSYYMHWVRQAPGQGLEWMGIINPSGGSTSYAQKFQGRVTMTRDTSTSTVYMELSSLRSEDTAVYYCAAGSYYSLDIWGQGTMVTVSS
VL: LLPVLTQPHSVSESPGKTVTISCTGSSGSIASNFVQWYQQRPGSAPTTVIYDDNQRPSGVPDRFSASIDRSSNSASLTISGLKTDDEADYYCQSYDGSNVIFGGGTKLTVLG
notes: also called Pr4350#37
As to B6, the binding result in assay [14] is “binds”.

B7: PRA300-309 peptide (ALYVDSLFFL) (peptide)
peptide: ALYVDSLFFL
notes: also called pr300 peptide; PRAME300 peptide
Consider B7, for which the binding result in assay [26] is “binds”.

Source of the values: patent US20180148503A1 (Memorial Sloan Kettering, published 2018).
